Test: yeast display, Sf9 membrane polyspecificity reagent, FACS + sequencing; frameworks hold sequencing errors
Outline: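 Galactose-induced (36–48 hours) yeast carrying a synthetic nanobody display library were exposed to 10% biotinylated, detergent-solubilized Sf9 membrane reagent at 4 °C for 1 hour. FACS followed streptavidin microbead enrichment, using low and high (top ~1%) gates for expression (anti-HA) and reagent binding (streptavidin). Colony PCR, MiSeq 2 × 250 sequencing and CDR-length filtering followed. Labels for polyreactivity reflect the gate of origin.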

Row | Sequence | polyreactivity (PSR sort gate)
1 | QVQLVESGGGLVEAGGSLRLSCAASGRTFFSNAMVWYRQAPGKERELVAAINRGGSTYYADSVKGRFTSSRDNAKNTVNLQMNSLKPEDTAVYYCAAGYWSKNSIHYYYWGQGTQVTVSS | high polyreactivity
2 | QVQLVESGGGLVEAGGSLRLSCAASGSTFRWYAMGWYRQAPGKERELVAAISRSGASTYDSDSVKGRFTISRDNAKNTVYLQMNSLKPEDTAVYYCAAKQRTKGDYWRQGTQVTVSS | high polyreactivity
3 | QVQLVESGGGLVEAGGSLRLSCAASGSTFSVNAMGRYRQAPGKERELVAAISYRGGSTYYADSVKGRFTISRDNAKNTVYFQMNSLKPEDTAVYYCNAQRYRPGYWYDYWGQGTQVTVSS | high polyreactivity
4 | QVQLVESGGGLVEAGGSLRLSCAASGSTFTYYAMGWFRPAPGKERELVAAISSSGTSTYYADSVKGRFTLSRDNEKNTVSLQLNSLKPEDPAVYYCAADYYHTRGEADYEYAYWGKGTQVTVSS | low polyreactivity
5 | QVQLVESGGGLVEAGGSLRLSCAASGSTVWRYAMGWYRQAPGKERELVAAISWNGGSTYYADSVKGRFTISRDNAKNTVYLQMHSLKPEDTAVYYCARGYSWSVGYPRVQDMDYWGQGTQVTVSS | high polyreactivity
6 | QVQLVESGGGLVEAGGSLRLSCAASVRTFRYYDMGWFRQAPGKQWELVAAITARGGSTYYADSVKGRFTISRDNEKNTDYLQMNSQKPEDTAVYYCNAYPLQIFYLGNRQYNYWRQGTQVTVSS | high polyreactivity
7 | QVQLVESGGGLVEAGGSLRLSCADSGRIFLRNAMGWSRQAPGKERELVAAINRGGRTNYADSVKGRFTISRDNAKNTVYLQMNSLKPEDTAVYYCATERESPGYTEYDSWGQGTQVTVSS | low polyreactivity
8 | QVQLVESGGGLVEAGGSLRLSCADSGRTFGSYTMGWYRQAPGKEREWVAAITSGGRTNYADSVKGRFTISRDNAKNTVYLQMNSLKPEDTAVYYCAPGWRGGRYRYFAYDYWGQGTQVTVSS | high polyreactivity
9 | QVQLVESGGGLVEAGGSLRLTCEASGSIISYYVMGWYRQAPGKERELVAAISSSGGRTYYADSVKGRFTISRDNSKNTVYLQMNSLKPDDNAVYYCAARDRPSPYYYWGQGTQVNVSS | high polyreactivity
10 | QVQLVESGGGLVHAGCSLRLSCAASGLIFGSYSMGWYRQAPGKERELVAAISRSGGSTYYADSVKGRFTISRDNAKNTVYFLMNSLKPEDTAVYYCAARGYPLGIGRIKRNYWGQGKQVTVSS | high polyreactivity
11 | QVQLVESGGGLVHAGCSLRLSCAATGIIFAWYVMGWYRPAPGKERELVAAITQSGGSTFYADSVKGRFTISRDNAKNTVYLQMNSLKPEDTAVYYCNTEDFFNVPEMDSWGQGTQVTVSS | low polyreactivity
12 | QVQLVESGGGLVHAGGFLRLSCAASGRIFRWNAMGWYRQAPGKERELVAAISWNGGRTYYADSVKGRFTISRDNAKNRVYFQMNSLKPEDTAVYYCAAPHSVPDLHSGDYWGQGTQVTVSS | low polyreactivity
13 | QVQLVESGGGLVHAGGPLRLSCAPSGFIFRGYAMGWYRQAPGKEREFVAAISGSGGSTYYADSVKGRFTISRDNAKNTVFLQMNSLKTDDTAVYYCNARFWGVWGGYDYWGQGTQVTVSS | high polyreactivity
14 | QVQLVESGGGLVHAGGRLRLRCAASGSIFGYYAMAWYRHAPGKETELVAAISRRGGRTYYADSVKGRFTISRDNAKNTVYLQMNSLKPEDTAVYYCAKDRYYSELQYPYYRGDYWGQGTQVTVSS | high polyreactivity
15 | QVQLVESGGGLVHAGGSHRLSCAASGLIFYDNMGWYRQAPGKERELVAAISSSGGSTSYADSVKGRFTISRDNAKNTVYLQMNSLKPEDTAVYYCAADSYPAYLGFVGFDYWGQGTQVTVSS | low polyreactivity
16 | QVQLVESGGGLVHAGGSIRLSCAASGRIFDYNVMGWYRQAQGTERELVAAISWDGDSTYYADSVKGRFTISRDNAKHTVYLQKNSLKPEDTAVYYCNRVEGRTRWADEMNYWGQGTQVTVSS | low polyreactivity
17 | QVQLVESGGGLVHAGGSLLLSCAASRFIFASNAMGWYRKAPAKERELVAAISSSGGRTYYADSVKGRFTISRDNAKNSVYLQMNSLKPEDTAVYYCAADWLVTYDYWGQGTQVTVSS | high polyreactivity
18 | QVQLVESGGGLVHAGGSLRIICAASGRIFYIYAMGWYRQAPGKERELVAAITKSGGSTTHYADSVKGRFTISRDNAKNTVYLQMNSLKPEDTEVYYCAVDARYSRSKYGYWGHGTQVTVSS | high polyreactivity
19 | QVQLVESGGGLVHAGGSLRLRCAASGSIFYDNAMGWYTQAPWKERELVASIRWSGDSTYYADSVKGRFTISRDNAKNTVYLQMTSLKPEDTAVYYCAADPVEPYFTAIAYGYWGQGTQVTVSS | low polyreactivity
20 | QVQLVESGGGLVHAGGSLRLSCAACGRIFSRNAMGWYRQAPWKERELVAAITWRGGSTYYADSVKGRFTSSRDNAKNTVYLQMNSLKPEDTAVYYCNRDYRQYGYAYSGRFYWGHGTQVTVSS | high polyreactivity
21 | QVQLVESGGGLVHAGGSLRLSCAASARIFIAYMAWYRQAPGKERELVAAIDSGASTYYADSVKGRFTISRDNANNTVYLQMNSLKPEDTAVYYCAADVVYDYGGMDYWGQGTQVTVSS | low polyreactivity
22 | QVQLVESGGGLVHAGGSLRLSCAASGFIFARYAMGWYRQAPGKERELVAAINLSGGSTYYADSVKGRFTISRDNAKNTVYLQMNSLKPEDTAVYYCAATDPPYDAFEAKIDYQDFDYWGQGTQVTVSS | low polyreactivity
